{"source": "paper PMC7367873", "about": "“Dissecting the sequence determinants for dephosphorylation by the catalytic subunits of phosphatases PP1 and PP2A” (Nature Communications, 2020)", "molecules": {"B1": {"name": "FARP1 (protein, UniProt Q9Y4F1 1-1045, looked up)", "FERM, ARHGEF and pleckstrin …": "MGEIEQRPTPGSRLGAPENSGISTLERGQKPPPTPSGKLVSIKIQMLDDTQEAFEVPQRAPGKVLLDAVCNHLNLVEGDYFGLEFPDHKKITVWLDLLKPIVKQIRRPKHVVVKFVVKFFPPDHTQLQEELTRYLFALQVKQDLAQGRLTCNDTSAALLISHIVQSEIGDFDEALDREHLAKNKYIPQQDALEDKIVEFHHNHIGQTPAESDFQLLEIARRLEMYGIRLHPAKDREGTKINLAVANTGILVFQGFTKINAFNWAKVRKLSFKRKRFLIKLRPDANSAYQDTLEFLMASRDFCKSFWKICVEHHAFFRLFEEPKPKPKPVLFSRGSSFRFSGRTQKQVLDYVKEGGHKKVQFERKHSKIHSIRSLASQPTELNSEVLEQSQQSTSLTFGEGAESPGGQSCRRGKEPKVSAGEPGSHPSPAPRRSPAGNKQADGAASAPTEEEEEVVKDRTQQSKPQPPQPSTGSLTGSPHLSELSVNSQGGVAPANVTLSPNLSPDTKQASPLISPLLNDQACPRTDDEDEGRRKRFPTDKAYFIAKEVSTTERTYLKDLEVITSWFQSTVSKEDAMPEALKSLIFPNFEPLHKFHTNFLKEIEQRLALWEGRSNAQIRDYQRIGDVMLKNIQGMKHLAAHLWKHSEALEALENGIKSSRRLENFCRDFELQKVCYLPLNTFLLRPLHRLMHYKQVLERLCKHHPPSHADFRDCRAALAEITEMVAQLHGTMIKMENFQKLHELKKDLIGIDNLVVPGREFIRLGSLSKLSGKGLQQRMFFLFNDVLLYTSRGLTASNQFKVHGQLPLYGMTIEESEDEWGVPHCLTLRGQRQSIIVAASSRSEMEKWVEDIQMAIDLAEKSSSPAPEFLASSPPDNKSPDEATAADQESEDDLSASRTSLERQAPHRGNTMVHVCWHRNTSVSMVDFSIAVENQLSGNLLRKFKNSNGWQKLWVVFTNFCLFFYKSHQDNHPLASLPLLGYSLTIPSESENIQKDYVFKLHFKSHVYYFRAESEYTFERWMEVIRSATSSASRPHVLSHKESLVY"}, "B2": {"name": "BST2 (protein, UniProt Q10589 1-161, looked up)", "Bone marrow stromal antigen 2": "MASTSYDYCRVPMEDGDKRCKLLLGIGILVLLIIVILGVPLIIFTIKANSEACRDGLRAVMECRNVTHLLQQELTEAQKGFQDVEAQAATCNHTVMALMASLDAEKAQGQKKVEELEGEITTLNHKLQDASAEVERLRRENQVLSVRIADKKYYPSSQDSS"}, "B3": {"name": "SNRPA1 (protein, UniProt P09661 2-255, looked up)", "U2 small nuclear …": "VKLTAELIEQAAQYTNAVRDRELDLRGYKIPVIENLGATLDQFDAIDFSDNEIRKLDGFPLLRRLKTLLVNNNRICRIGEGLDQALPCLTELILTNNSLVELGDLDPLASLKSLTYLSILRNPVTNKKHYRLYVIYKVPQVRVLDFQKVKLKERQEAEKMFKGKRGAQLAKDIARRSKTFNPGAGLPTDKKKGGPSPGDVEAIKNAIANASTLAEVERLKGLLQSGQIPGRERRSGPTDDGEEEMEEDTVTNGS"}}, "key": {"[1]": {"test_system": "GFP-14-3-3β and its binding proteins", "test": "GFP-14-3-3β co-IP with LC-MS/MS label-free quantification, untreated versus PP1c-treated", "parameters": "species or system human", "details": "pairwise comparison PP1 vs untreated"}, "GFP-14-3-3β": {"test_system": "GFP-14-3-3β", "test": "GFP-14-3-3β co-IP with LC-MS/MS, untreated GFP-14-3-3β versus GFP control (14-3-3 interactome)", "assay_type": "binding, human", "details": "pairwise comparison untreated vs GFP"}, "[2]": {"details": "log2 difference, label-free quantification, 3 replicates each"}}}
{"molecule": "B1", "values": [{"measurement": "Difference (log2), PP1 vs untreated", "setting": "[1]", "result": -0.03585, "unit": "log2"}, {"measurement": "Difference (log2), untreated vs GFP", "setting": "GFP-14-3-3β", "result": 0.5364, "unit": "log2"}]}
{"molecule": "B2", "values": [{"measurement": "Difference (log2), PP1 vs untreated", "setting": "[1]; [2]", "result": 1.808}, {"measurement": "Difference (log2), untreated vs GFP", "setting": "GFP-14-3-3β; [2]", "result": -3.2427}]}
{"molecule": "B3", "values": [{"measurement": "Difference (log2), PP1 vs untreated", "setting": "[1]", "result": -0.04086, "unit": "log2"}, {"measurement": "Difference (log2), untreated vs GFP", "setting": "GFP-14-3-3β", "result": 0.8199, "unit": "log2"}]}
